Data taken from article doi:10.1101/2025.11.17.688879 (bioRxiv, 2025).

B1: HA-DrSTING stably expressed in MEF Sting-/- cells (MEF^DrSTING) (natural protein, Danio rerio)
chain: MSVMGEDALVPRARSRLPVMCAAGLGFLTLAVAWLLDSDKFSERAGIIAFGLMLERFIYCICLLAEELLFHSRQRYHGRMSEIFRACFRGSGILGMCAIFLMLMLGGVSFSVKQWSHFNLMCAGYMLLNSLGVLGPAPVEISEICEAKKMNVAHGLAWSFYIGYLKFLLPALEVNVREYSRRERLSSPRLHILLPLNARVPSKPEEEDTNVVFHENLPDLKLDRAGVRKRSYTNSVYKITHNNETFSCILEYATPLLTLYQMSQESSAGFGERERKQQVLLFYRTLSQILDNSLECRNRYRLILLNDEHTGDPHYLSRELFQNLKQQDGEIFMDPTNEVHPVPEEGPVGNCNGALQATFHEEPMSDEPTLMFSRPQSLRSEPVETTDYFNPSSAMKQN
B2: HA-MmSTING stably expressed in MEF Sting-/- cells (MEF^MmSTING) (natural protein, Mus musculus)
chain: MPYSNLHPAIPRPRGHRSKYVALIFLVASLMILWVAKDPPNHTLKYLALHLASHELGLLLKNLCCLAEELCHVQSRYQGSYWKAVRACLGCPIHCMAMILLSSYFYFLQNTADIYLSWMFGLLVLYKSLSMLLGLQSLTPAEVSAVCEEKKLNVAHGLAWSYYIGYLRLILPGLQARIRMFNQLHNNMLSGAGSRRLYILFPLDCGVPDNLSVVDPNIRFRDMLPQQNIDRAGIKNRVYSNSVYEILENGQPAGVCILEYATPLQTLFAMSQDAKAGFSREDRLEQAKLFCRTLEEILEDVPESRNNCRLIVYQEPTDGNSFSLSQEVLRHIRQEEKEEVTMNAPMTSVAPPPSVLSQEPRLLISGMDQPLPLRTDLI
B3: HA-MbSTING stably expressed in MEF Sting-/- cells (MEF^MbSTING) (natural protein, Monosiga brevicollis)
chain: MMVNLSDLSHLSQRGWAQVFVTLAAAAISIFYFSFSPFEVAAGICASIAAAGAVPLLFDAVHYLIAFCISAPDARPPLRTVWTKTRLQRWSGLSILTFIVLACGLYFASPSPMSASNLFAVFALSLCNSVFSAMVAPRCGRLEVVDLATHPNTVLFRDFGAASAMSYWHGYLQHIAGDRAALEERFRDSDVGGMRVPRKLYILVPQDCEVNASDNKYEGLKATEHYISPKPITIGGVVDREMGKHTLYTPSESAETASVAFAMELASPLNTMKNALKDAAEGLLELQSEAFYLTLRGILKQEGVLDQGNDEGMIKLVWGKNRSEVLKKMRAEDQYAMP
B4: HA-NvSTING stably expressed in MEF Sting-/- cells (MEF^NvSTING) (natural protein, Nematostella vectensis)
chain: MRRAEENNGFGTIPKRRNQHTPFYASIGMIVVIIVAFTSYHITSYGDDRNRAMRQYSFTFSLAYLAFLVGELLRRCCLFAEEYRHIETRYNGSLKKAIQTTFSFGHNNVLFVASLLFFVVFVASNDPNGSSSVIQGNSTAEPHTEMRQTSGWQGLWGQFIISALLTPLVVHLLGLRELSKVEESQLNEKENKNVADGLAWSYYFGYLKFVLPELEKQIEKTSKFRSKEKFVKKMFILIPSNCFWDDKIPGSDYDPQNRITFEGNTEPLEKTRGGVFLRHYKHSVYEIKDGENEPWFCIMEYATPLLTLYDMSVAQPGELSREERDAQVVVFLRKLQDILEGDRACQGKYELVTFSPDRDLADVMLRKLKDSELEIGG

Target: the molecule itself
Assay: native gel or EMSA

B1 and B2 cannot be ordered by “stoichiometry N” value: at least 4 for the first, at least 4 for the second.

B3 and B4 cannot be ordered by “stoichiometry N” value: 4 for the first, at least 4 for the second.
